# Assay results: patent US20230381336A1 (SHANGHAI MIRACOGEN, published 2023)
# Residue numbers refer to the chain shown, from its start.
# T1: human Claudin 18.1 (human, UniProt P56856 1-261)
# T1 construct: whole, on cells; Splice variant used as specificity control
# T1 sequence (looked up): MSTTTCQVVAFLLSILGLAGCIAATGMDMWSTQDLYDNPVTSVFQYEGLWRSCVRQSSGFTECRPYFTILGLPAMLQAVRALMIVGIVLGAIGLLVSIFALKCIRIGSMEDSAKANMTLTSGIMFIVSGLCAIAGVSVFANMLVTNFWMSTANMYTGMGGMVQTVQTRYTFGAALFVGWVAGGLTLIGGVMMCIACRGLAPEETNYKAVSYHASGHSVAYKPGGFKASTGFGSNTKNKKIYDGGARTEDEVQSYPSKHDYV
# T2: human Claudin 18.2 (human, UniProt P56856-2 1-261)
# T2 sequence (looked up): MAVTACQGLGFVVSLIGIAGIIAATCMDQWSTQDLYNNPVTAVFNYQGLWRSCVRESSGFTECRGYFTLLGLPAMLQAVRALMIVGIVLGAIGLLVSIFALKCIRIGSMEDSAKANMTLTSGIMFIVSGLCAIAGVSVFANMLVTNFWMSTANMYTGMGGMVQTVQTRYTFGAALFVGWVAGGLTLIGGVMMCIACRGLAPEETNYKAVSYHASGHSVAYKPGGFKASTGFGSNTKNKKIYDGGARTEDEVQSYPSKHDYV
# B1: 18D10 chimera (antibody, V domains shown)
# VH: DVQLQESGPGLVKPSQSLSLTCTVTGYSITSNYAWNWIRQFPGNKLEWMGYINYSGNTNYNPSLKSRISITRDTSKNQFFLQLNSVTAEDTATYYCATSYYGNSFIYWGQGTLVTVSA
# VL: DIVMTQSPSSLTVTAGEKVTMSCKSSQSLLNSGNQKNYLTWYQQKPGQPPKLLIYWASTRESGVPDRFTGSGSGTDFTLTISSVQAEDLAVYYCQNAYSFPWTFGGGTKLEIK
# notes: also called Clone 18D10; 18D10 mVH / 18D10 mVL
# B2: 18A9 chimera (antibody, V domains shown)
# VH: QVQLQQSGREVVRPGTSVKVSCKPSGYAFTNYLIDWVKQRPGQGLEWIGGINPGSGDTVYNEKFKAKATLTADKSSMTANMQLSSLTSDDSAVYFCARRVRGNSFDSWGQGTLVTVSA
# VL: B1 VL with T5S, T75K, V91L, A97N, S99F, F100Y, W102L, G106A, I112L
# notes: also called Clone 18A9; 18A9 mVH / 18A9 mVL
# B3: CM311-18D10-VH3/VL2-ADC (other)
# VH: QVQLQESGPGLVKPSETLSLTCTVSGGSISSNYAWNWIRQPPGKGLEWIGYINYSGNTNYNPSLKSRVTISRDTSKNQFSLKLSSVTAADTAVYYCATSYYGNSFIYWGQGTLVTVSS
# VL: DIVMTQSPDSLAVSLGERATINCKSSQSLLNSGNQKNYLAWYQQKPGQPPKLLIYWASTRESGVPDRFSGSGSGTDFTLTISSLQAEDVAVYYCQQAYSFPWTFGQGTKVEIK
# modifications: MC-vc-PAB-MMAE coupled to free cysteine thiols of the DTT-reduced antibody; average DAR 3.5 per antibody; sites not stated
# B4: CM311-18D10-VH6/VL2-ADC (other)
# VH: B3 VH with N53Y
# VL: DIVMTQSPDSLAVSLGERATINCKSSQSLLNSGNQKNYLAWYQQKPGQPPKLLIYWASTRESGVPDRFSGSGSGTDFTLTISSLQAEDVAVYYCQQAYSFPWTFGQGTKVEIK
# modifications: MC-vc-PAB-MMAE coupled to free cysteine thiols of the DTT-reduced antibody; average DAR 3.4 per antibody; sites not stated
# B5: CM311-18A9-VH7/VL2-ADC (other)
# VH: QVQLVQSGAEVKKPGASVKVSCKPSGYTFTNYLIDWVRQAPGQGLEWMGGINPGSGDTVYNEKFQGRVTLTADTSTSTVYMELSSLRSEDTAVYFCARRVRGNSFDSWGQGTLVTVSS
# VL: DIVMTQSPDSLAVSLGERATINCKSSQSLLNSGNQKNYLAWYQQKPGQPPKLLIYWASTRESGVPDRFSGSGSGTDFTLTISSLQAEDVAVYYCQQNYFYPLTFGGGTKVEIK
# modifications: MC-vc-PAB-MMAE coupled to free cysteine thiols of the DTT-reduced antibody; average DAR 3.0 per antibody; sites not stated
# Tests used:
# human Claudin 18.1 = molecular target: T1, human Claudin 18.1; test: flow cytometry (iQue) on HEK293 cells stably expressing human Claudin 18.1
# Protocol: The cells were gently tapped, and 50 μL of serially diluted antibodies were added to each well (antibody concentration starting from 100 nM, 5-fold dilution for 8 gradients), and incubated at 4° C. for 1 hour. After the incubation, 140μL of 0.5% BSA was added to each well to wash 3 times, and 30 μL/well of secondary antibody AlexaFluro647 anti-human IgG (Jackson ImmunoResearch, Cat: 109-606-170) was added, and incubated at 4° C. for 40 minutes. After the incubation, 140 μL of 0.5% BSA was added to each well to wash 3 times, and finally each well was resuspended in 50 μL of PBS for detection by flow cytometry (iQue Screener).
# human Claudin 18.2 = molecular target: T2, human Claudin 18.2; test: cell-based or functional assay
Binder,binding result (human Claudin 18.1),"Mean IC50 of cell killing, LT-1C8 cells (KATO stable cell line, medium Claudin 18.2 expression), 96 h, CCK-8 or Presto-Blue (human Claudin 18.2) [µg/mL]","Mean IC50 of cell killing, LT-M11 cells (KATO stable cell line, high Claudin 18.2 expression), 96 h, CCK-8 or Presto-Blue (human Claudin 18.2) [µg/mL]","Mean IC50 of cell killing, row without a cell line label printed under LT-M11 (taken as a second LT-M11 series) (human Claudin 18.2) [µg/mL]"
B1,no binding,,,
B2,no binding,,,
B3,,0.52,0.2,0.132
B4,,0.615,0.35,0.147
B5,,0.111,0.155,0.0512
